± gives the uncertainty stated by the source.
B1: Nucleolar transcription factor 1, residues 408 to 469; numbered along this chain, P17480 (parent)
chain: KRPVSAMFIFSEEKRRQLQEERPELSESELTRLLARMWNDLSEKKKAKYKAREAALKAQSER

Variants of: B1
Experiment: abundance fitness (aPCA) (normalised: wild type 0, dead -1); higher = more abundant; growth selection in yeast, the domain comes from the species named
Conditions: Homo sapiens

First: L18W
Second: L18E
The abundance fitness of the first is higher: -0.338 ± 0.047 for the first, -0.664 ± 0.06 for the second.

Q19A and Q19Y are within error of each other in abundance fitness: -0.036 ± 0.06 for the first, -0.095 ± 0.082 for the second.

Q19L and Q19R are within error of each other in abundance fitness: -0.017 ± 0.041 for the first, -0.016 ± 0.041 for the second.

First: Q19M
Second: L41Y
The abundance fitness of the first is higher: 0.012 ± 0.055 for the first, -0.507 ± 0.25 for the second.

First: L41D
Second: L41Q
The abundance fitness of the first is lower: -0.613 ± 0.079 for the first, -0.225 ± 0.07 for the second.

Compared with L41K, L41E is higher in abundance fitness: -0.576 ± 0.075 for the first, -0.388 ± 0.061 for the second.

A54D and A54T are within error of each other in abundance fitness: 0.006 ± 0.13 for the first, -0.04 ± 0.054 for the second.

First: Q59Y
Second: Q59V
The abundance fitness of the first is lower: -0.262 ± 0.1 for the first, -0.034 ± 0.051 for the second.

Q59C and R62K are within error of each other in abundance fitness: -0.076 ± 0.098 for the first, 0.042 ± 0.1 for the second.

R62A and F8M are within error of each other in abundance fitness: 0.079 ± 0.18 for the first, -0.003 ± 0.053 for the second.

F8C and F8D are within error of each other in abundance fitness: -0.069 ± 0.11 for the first, -0.023 ± 0.07 for the second.

First: F8Y
Second: W38K
The abundance fitness of the first is higher: -0.001 ± 0.14 for the first, -0.787 ± 0.12 for the second.

M7C and M7I are within error of each other in abundance fitness: -0.066 ± 0.083 for the first, -0.151 ± 0.11 for the second.

Compared with S42V, S42A is higher in abundance fitness: -0.427 ± 0.036 for the first, -0.115 ± 0.058 for the second.

S42H and S42G are within error of each other in abundance fitness: -0.179 ± 0.22 for the first, -0.082 ± 0.05 for the second.

Going from S42P to S42L, the abundance fitness falls from -0.081 ± 0.059 to -0.661 ± 0.052.

R36V and R36K are within error of each other in abundance fitness: -0.05 ± 0.052 for the first, -0.072 ± 0.08 for the second.

R36M and R36A are within error of each other in abundance fitness: -0.103 ± 0.066 for the first, -0.006 ± 0.063 for the second.

Going from R36P to S5M, the abundance fitness rises from -0.483 ± 0.11 to -0.196 ± 0.084.

S5P and S5V are within error of each other in abundance fitness: -0.112 ± 0.09 for the first, -0.187 ± 0.064 for the second.

E20Y and E20W are within error of each other in abundance fitness: -0.099 ± 0.13 for the first, -0.152 ± 0.051 for the second.

E20M and E20H are within error of each other in abundance fitness: -0.099 ± 0.1 for the first, -0.09 ± 0.088 for the second.

E20Q and E20L are within error of each other in abundance fitness: -0.016 ± 0.061 for the first, -0.1 ± 0.045 for the second.

Going from E20C to A51P, the abundance fitness falls from -0.025 ± 0.066 to -0.374 ± 0.094.

A51D and A51S are within error of each other in abundance fitness: -0.102 ± 0.06 for the first, -0.066 ± 0.052 for the second.

E13D and E13T are within error of each other in abundance fitness: -0.04 ± 0.1 for the first, -0.167 ± 0.089 for the second.

Going from K50G to K50Q, the abundance fitness rises from -0.251 ± 0.074 to -0.016 ± 0.079.

R15A and R15Q are within error of each other in abundance fitness: -0.201 ± 0.051 for the first, -0.267 ± 0.13 for the second.

R15T and S26A are within error of each other in abundance fitness: -0.23 ± 0.077 for the first, -0.115 ± 0.056 for the second.

Compared with S26W, S26E is higher in abundance fitness: -0.944 ± 0.094 for the first, -0.109 ± 0.062 for the second.

Compared with S26Y, S26D is higher in abundance fitness: -0.536 ± 0.2 for the first, -0.157 ± 0.098 for the second.

Going from S26T to S26K, the abundance fitness falls from -0.144 ± 0.089 to -0.476 ± 0.18.

First: S26L
Second: S26M
The abundance fitness of the first is lower: -0.231 ± 0.07 for the first, -0.052 ± 0.088 for the second.

E21V and E21M are within error of each other in abundance fitness: -0.1 ± 0.056 for the first, -0.073 ± 0.063 for the second.

E21Q and E21I are within error of each other in abundance fitness: -0.006 ± 0.076 for the first, -0.111 ± 0.18 for the second.

First: L25A
Second: L25R
The abundance fitness of the first is higher: -0.106 ± 0.099 for the first, -0.325 ± 0.054 for the second.

Going from L25E to L25V, the abundance fitness rises from -0.501 ± 0.076 to -0.155 ± 0.054.

Going from L25M to L25K, the abundance fitness falls from -0.011 ± 0.055 to -0.385 ± 0.082.

A58I and A58C are within error of each other in abundance fitness: 0.022 ± 0.12 for the first, -0.067 ± 0.072 for the second.

K14Q and Q17L are within error of each other in abundance fitness: -0.064 ± 0.079 for the first, -0.034 ± 0.046 for the second.

Q17D and Q17Y are within error of each other in abundance fitness: -0.112 ± 0.11 for the first, -0.145 ± 0.12 for the second.

E43L and E43V are within error of each other in abundance fitness: -0.205 ± 0.083 for the first, -0.207 ± 0.11 for the second.

E53A and E53W are within error of each other in abundance fitness: -0.056 ± 0.072 for the first, -0.133 ± 0.074 for the second.

R52S and R52D are within error of each other in abundance fitness: -0.137 ± 0.046 for the first, -0.106 ± 0.14 for the second.

K44E and K44V are within error of each other in abundance fitness: -0.021 ± 0.064 for the first, -0.034 ± 0.04 for the second.

R2T and R2H are within error of each other in abundance fitness: -0.143 ± 0.13 for the first, -0.025 ± 0.096 for the second.

R2Q and A55P are within error of each other in abundance fitness: -0.317 ± 0.1 for the first, -0.132 ± 0.093 for the second.

Compared with A55V, L33S is lower in abundance fitness: -0.025 ± 0.072 for the first, -0.188 ± 0.07 for the second.

L33W and D40R are within error of each other in abundance fitness: -0.315 ± 0.086 for the first, -0.237 ± 0.039 for the second.

D40A and D40E are within error of each other in abundance fitness: -0.143 ± 0.06 for the first, -0.058 ± 0.054 for the second.

D40L and D40M are within error of each other in abundance fitness: -0.105 ± 0.052 for the first, -0.044 ± 0.08 for the second.

First: D40V
Second: D40Q
The abundance fitness of the first is lower: -0.188 ± 0.05 for the first, -0.036 ± 0.081 for the second.

E61K and E61G are within error of each other in abundance fitness: -0.093 ± 0.097 for the first, -0.071 ± 0.046 for the second.

Going from K46S to K46P, the abundance fitness falls from -0.569 ± 0.069 to -0.772 ± 0.1.

First: K46E
Second: K46Q
The abundance fitness of the first is lower: -0.708 ± 0.065 for the first, -0.112 ± 0.068 for the second.

A47G and A47E are within error of each other in abundance fitness: -0.098 ± 0.052 for the first, -0.039 ± 0.086 for the second.

M37Q and M37E are within error of each other in abundance fitness: -0.237 ± 0.088 for the first, -0.094 ± 0.056 for the second.

Going from M37V to M37R, the abundance fitness rises from -0.382 ± 0.044 to -0.147 ± 0.041.

Going from M37P to A35R, the abundance fitness rises from -1.1 ± 0.092 to -0.018 ± 0.049.

A35C and A35H are within error of each other in abundance fitness: -0.194 ± 0.13 for the first, -0.341 ± 0.076 for the second.

R22Y and R22F are within error of each other in abundance fitness: -0.068 ± 0.07 for the first, -0.057 ± 0.068 for the second.

Going from R22P to R22S, the abundance fitness rises from -1.06 ± 0.16 to -0.119 ± 0.05.

E24G and E24H are within error of each other in abundance fitness: -0.069 ± 0.05 for the first, -0.074 ± 0.11 for the second.

First: L34P
Second: L34V
The abundance fitness of the first is lower: -0.945 ± 0.17 for the first, -0.026 ± 0.057 for the second.

Compared with L34D, K57E is higher in abundance fitness: -1.19 ± 0.45 for the first, 0.017 ± 0.074 for the second.

K57S and K57I are within error of each other in abundance fitness: -0.005 ± 0.05 for the first, -0.045 ± 0.069 for the second.

K57R and K1N are within error of each other in abundance fitness: -0.079 ± 0.049 for the first, -0.191 ± 0.17 for the second.

K1T and S28E are within error of each other in abundance fitness: -0.06 ± 0.096 for the first, -0.011 ± 0.14 for the second.

S28F and S28H are within error of each other in abundance fitness: -0.071 ± 0.047 for the first, -0.06 ± 0.046 for the second.

S28M and K48F are within error of each other in abundance fitness: -0.131 ± 0.067 for the first, -0.066 ± 0.067 for the second.

K48H and K48I are within error of each other in abundance fitness: -0.213 ± 0.35 for the first, -0.264 ± 0.36 for the second.

K48T and K48D are within error of each other in abundance fitness: -0.005 ± 0.053 for the first, 0.024 ± 0.13 for the second.

E27F and E27T are within error of each other in abundance fitness: -0.212 ± 0.091 for the first, -0.133 ± 0.072 for the second.

Going from I9L to I9S, the abundance fitness falls from -0.027 ± 0.064 to -0.191 ± 0.073.

N39E and R16G are the same in abundance fitness: -0.037 ± 0.057 for the first, -0.037 ± 0.043 for the second.

R16V and R16A are within error of each other in abundance fitness: -0.044 ± 0.053 for the first, -0.027 ± 0.051 for the second.

S11Q and S11E are within error of each other in abundance fitness: -0.027 ± 0.073 for the first, -0.023 ± 0.067 for the second.

Compared with S11T, S11R is lower in abundance fitness: -0.013 ± 0.05 for the first, -0.13 ± 0.043 for the second.

S11C and V4D are within error of each other in abundance fitness: -0.102 ± 0.12 for the first, -0.011 ± 0.085 for the second.

V4T and V4M are within error of each other in abundance fitness: -0.111 ± 0.078 for the first, -0.031 ± 0.079 for the second.

F10G and F10T are within error of each other in abundance fitness: -0.683 ± 0.055 for the first, -0.751 ± 0.087 for the second.

F10K and F10P are within error of each other in abundance fitness: -0.857 ± 0.1 for the first, -0.677 ± 0.089 for the second.

P3G and P3A are within error of each other in abundance fitness: -0.083 ± 0.054 for the first, -0.137 ± 0.068 for the second.

Variant P3Q has an abundance fitness of -0.011 ± 0.058.

Source: the Human Domainome abundance scans (Beltran et al. 2025)
